Measurements published in patent EP1313853B1.

Biological target: Fas (Apo-1, CD95) (human) (UniProt P25445)
Assay: cell-based or functional assay

Chain of UniProt P25445 (P25445 26-335): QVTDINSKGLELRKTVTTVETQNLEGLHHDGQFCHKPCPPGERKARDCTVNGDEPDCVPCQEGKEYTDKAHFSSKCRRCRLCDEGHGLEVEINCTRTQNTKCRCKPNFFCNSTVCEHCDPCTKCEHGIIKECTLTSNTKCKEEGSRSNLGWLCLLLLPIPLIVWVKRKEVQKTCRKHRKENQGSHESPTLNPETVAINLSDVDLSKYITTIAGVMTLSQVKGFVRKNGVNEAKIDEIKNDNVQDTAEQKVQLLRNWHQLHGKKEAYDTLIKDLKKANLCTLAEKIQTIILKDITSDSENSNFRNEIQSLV

Substance “agonistic anti-Fas monoclonal antibodies (clone CH-11: Coulter-Immunotech, Marseille, France) (antibody)” has a % INHIBITION of Jurkat human leukemia T cell proliferation (MTT), 0.02 µg/ml antibody, no sequence of 16%, a % INHIBITION of Jurkat human leukemia T cell proliferation (MTT), 0.2 µg/ml antibody, no sequence of 33% and a % INHIBITION of UMUC-3 bladder cancer cell proliferation (MTT), 0.02 µg/ml antibody, no sequence of 7%. For the same substance, the % INHIBITION of UMUC-3 bladder cancer cell proliferation (MTT), 0.2 µg/ml antibody, no sequence was 17%.
